{
  "source": "patent US20260097113A1",
  "about": "(Pfizer, published 2026)",
  "molecules": {"B1": {"name": "AM14 (trimeric prefusion specific antibody of the AM14 ELISA) (antibody, V domains shown)", "VH": "EVQLVESGGGVVQPGRSLRLSCAASGFSFSHYAMHWVRQAPGKGLEWVAVISYDGENTYYADSVKGRFSISRDNSKNTVSLQMNSLRPEDTALYYCARDRIVDDYYYYGMDVWGQGATVTVSS", "VL": "DIQMTQSPSSLSASVGDRVTITCQASQDIKKYLNWYHQKPGKVPELLMHDASNLETGVPSRFSGRGSGTDFTLTISSLQPEDIGTYYCQQYDNLPPLTFGGGTKVEIKR", "notes": "Antibody as used in the AM14 ELISA, detected with an HRP-labeled secondary antibody"}},
  "key": {"[1]": {"biological_target": "RSV A + RSV B bivalent composition (RSV subtype A; RSV subtype B)", "experiment": "AM14 Fab titration by SEC; Target cycle; 8 M 40°C"}, "[2]": {"biological_target": "RSV A + RSV B bivalent composition (RSV subtype A; RSV subtype B)", "experiment": "AM14 Fab titration by SEC; Low-Fast cycle; 1 M 40°C"}, "[3]": {"biological_target": "RSV A + RSV B bivalent composition (RSV subtype A; RSV subtype B)", "experiment": "AM14 Fab titration by SEC; High-Slow 2 cycle; 8 M 25°C"}, "[4]": {"biological_target": "RSV A + RSV B bivalent composition (RSV subtype A; RSV subtype B)", "experiment": "AM14 Fab titration by SEC; Target cycle; 1 M 2-8°C (second value)"}, "[5]": {"biological_target": "RSV A + RSV B bivalent composition (RSV subtype A; RSV subtype B)", "experiment": "AM14 Fab titration by SEC; High-Slow 2 cycle; 1 M 25°C (second value)"}, "[6]": {"biological_target": "RSV A + RSV B bivalent composition (RSV subtype A; RSV subtype B)", "experiment": "AM14 Fab titration by SEC; composition of Table 14; Annealing Temp Aggressive cycle"}, "[7]": {"biological_target": "T1, RSV F protein of subtype A comprising a polypeptide of SEQ ID NO: 1 and a polypeptide of SEQ ID NO: 2 (RSV subtype A, UniProt P11209 137-513; P03420 26-109)", "T1 construct": "Stabilized prefusion F trimer made of three F2-F1 heterodimers; Produced recombinantly in CHO cells; also called RSV A; RSVA", "T1 chain 1": "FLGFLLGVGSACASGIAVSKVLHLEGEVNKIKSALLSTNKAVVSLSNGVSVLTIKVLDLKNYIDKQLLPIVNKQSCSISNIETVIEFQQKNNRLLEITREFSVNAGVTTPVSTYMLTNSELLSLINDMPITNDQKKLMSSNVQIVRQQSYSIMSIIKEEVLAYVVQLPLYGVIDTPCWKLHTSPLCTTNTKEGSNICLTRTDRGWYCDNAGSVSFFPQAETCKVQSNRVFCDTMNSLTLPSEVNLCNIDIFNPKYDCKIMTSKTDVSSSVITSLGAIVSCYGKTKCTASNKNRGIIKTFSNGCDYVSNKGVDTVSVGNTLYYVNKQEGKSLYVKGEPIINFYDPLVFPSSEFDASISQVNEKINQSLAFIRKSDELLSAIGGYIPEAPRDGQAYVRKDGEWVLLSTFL", "T1 chain 2": "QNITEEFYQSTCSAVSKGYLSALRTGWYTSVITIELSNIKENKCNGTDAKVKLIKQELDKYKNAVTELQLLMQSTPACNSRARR", "experiment": "AM14 ELISA; F8 (pH 7, 50 mM NaCl, 0% sucrose); T0"}, "[8]": {"biological_target": "T1, RSV F protein of subtype A comprising a …", "experiment": "AM14 ELISA; F5 (pH 6, 100 mM NaCl, 9.0% sucrose); T0"}, "[9]": {"biological_target": "T1, RSV F protein of subtype A comprising a …", "experiment": "AM14 ELISA; F2 (pH 8, 0 mM NaCl, 0% sucrose); 2 wk 25°C"}, "[10]": {"biological_target": "T1, RSV F protein of subtype A comprising a …", "experiment": "AM14 ELISA; F14 (pH 7, 50 mM NaCl, 4.5% sucrose); 1 wk 25°C"}, "[11]": {"biological_target": "T1, RSV F protein of subtype A comprising a …", "experiment": "AM14 ELISA; F14 (pH 7, 50 mM NaCl, 4.5% sucrose); 2 wk 25°C"}, "[12]": {"biological_target": "T1, RSV F protein of subtype A comprising a …", "experiment": "AM14 ELISA; F17 (pH 7, 50 mM NaCl, 4.5% trehalose); 2 wk 25°C"}, "[13]": {"biological_target": "T1, RSV F protein of subtype A comprising a …", "experiment": "AM14 ELISA; F19 (pH 7, 50 mM NaCl, 3% trehalose + 3% mannitol); T0"}, "[14]": {"biological_target": "T1, RSV F protein of subtype A comprising a …", "experiment": "AM14 ELISA; F19 (pH 7, 50 mM NaCl, 3% trehalose + 3% mannitol); 1 wk 25°C"}, "[15]": {"biological_target": "T2, RSV F protein comprising a polypeptide of SEQ ID NO: 3 and a polypeptide of SEQ ID NO: 4 (RSV subtype B, UniProt O36634 137-513; O36634 26-109)", "T2 construct": "also called RSV B; RSVB", "T2 chain 1": "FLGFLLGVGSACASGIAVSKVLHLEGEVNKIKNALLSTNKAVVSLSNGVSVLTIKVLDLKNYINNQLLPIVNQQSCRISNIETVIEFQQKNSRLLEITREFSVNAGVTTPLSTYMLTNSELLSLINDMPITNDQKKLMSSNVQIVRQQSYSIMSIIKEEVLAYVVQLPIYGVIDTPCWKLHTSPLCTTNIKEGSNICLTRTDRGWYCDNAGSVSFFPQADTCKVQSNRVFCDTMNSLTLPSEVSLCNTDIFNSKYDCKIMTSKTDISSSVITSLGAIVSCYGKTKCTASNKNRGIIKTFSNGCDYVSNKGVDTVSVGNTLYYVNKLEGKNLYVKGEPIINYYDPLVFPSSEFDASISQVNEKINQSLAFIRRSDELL", "T2 chain 2": "T1 chain 2 with K17R, L20F, N42T, A49T, S74N, S80N", "experiment": "AM14 prefusion assay relative to standard; RSV B 480 µg/mL, 2% sucrose + 4% mannitol; post-lyo T0"}},
  "note": "Changes are numbered by the printed parent chain.",
  "data": [
    {"molecule": "AM14 Fab", "values": [
      {"measurement": "Prefusion Content (%)", "setting": "[1]", "value": 67, "unit": "%"},
      {"measurement": "Prefusion Content (%)", "setting": "[2]", "value": 65, "unit": "%"},
      {"measurement": "Prefusion Content (%)", "setting": "[3]", "value": 71, "unit": "%"},
      {"measurement": "Prefusion Content (%)", "setting": "[4]", "value": 69, "unit": "%"},
      {"measurement": "Prefusion Content (%)", "setting": "[5]", "value": 59, "unit": "%"},
      {"measurement": "Prefusion Content (%)", "setting": "[6]", "value": 70, "unit": "%"}
    ]},
    {"molecule": "B1", "values": [
      {"measurement": "AM14 prefusion content (%), relative to standard", "setting": "[7]", "value": 100, "unit": "%"},
      {"measurement": "AM14 prefusion content (%), relative to standard", "setting": "[8]", "value": 91, "unit": "%"},
      {"measurement": "AM14 prefusion content (%), relative to standard", "setting": "[9]", "value": 56, "unit": "%"},
      {"measurement": "AM14 prefusion content (%), relative to standard", "setting": "[10]", "value": 77, "unit": "%"},
      {"measurement": "AM14 prefusion content (%), relative to standard", "setting": "[11]", "value": 78, "unit": "%"},
      {"measurement": "AM14 prefusion content (%), relative to standard", "setting": "[12]", "value": 64, "unit": "%"},
      {"measurement": "AM14 prefusion content (%), relative to standard", "setting": "[13]", "value": 93, "unit": "%"},
      {"measurement": "AM14 prefusion content (%), relative to standard", "setting": "[14]", "value": 75, "unit": "%"},
      {"measurement": "AM14 prefusion content (%), relative to standard", "setting": "[15]", "value": 82, "unit": "%"}
    ]}
  ]
}
